According to the supplement of paper PMC12042874:
± gives the uncertainty stated by the source.

Experiment: amyloid nucleation score (Sup35N fusion, yeast selection) (log enrichment); library NNK1; higher = more nucleation; inactive = no reads after selection
In short: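 Plasmid inserts were Illumina-sequenced at input and output from psi-negative yeast expressing Sup35N fused to peptides of 20 random codons. The yeast were induced with 100 μM copper sulfate for 24 hours and grown 7 days at 30°C on medium lacking adenine and uracil, and sequences with under 100 input reads were excluded. Nucleation score is the DiMSum log enrichment of output over input reads, centred on the mode score of non-aggregating sequences.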

Substance | amyloid nucleation score
RRSSSFSGIWYVSVGYNASL | -0.316 ± 0.53
RRVSLH | 0.416 ± 0.6
RRWYTSHLLWGRNISAGDIL | -0.221 ± 0.44
RRYRVLANISS | 0.66 ± 0.49
RRYWVIIIEVAGSRSVETPV | -0.823 ± 0.51
RSASAREHNTALRSRPARVG | -0.353 ± 1.7
RSCLQGFGIFAMAIMD | 0.367 ± 0.79
RSDWFHMCNNT | 2.38 ± 0.089
RSEELYGQDVQEKSAGPRVS | -0.089 ± 1.2
RSEGKNMADS | -0.46 ± 1.1
RSFTCVMDRSDVEVGQCLGS | -0.6 ± 0.77
RSFVLLGFPSY | -0.882 ± 0.66
RSGNVAQEMSMHPTWYEWS | 0.954 ± 0.31
RSHAIHVYKQLCHRVVFIWL | 1.39 ± 0.46
RSIMWNLFHDF | 0.789 ± 0.51
RSIRSIESNYYLRNVTFISR | 1.09 ± 0.31
RSLFLDCS | -0.475 ± 0.91
RSLKMINNYISKLHVLMGFH | -0.281 ± 0.76
RSLNPVISFLN | -0.329 ± 0.69
RSMACVRLFDFQSQLYFRVF | -0.186 ± 0.77
RSNCWFEV | 0.035 ± 0.4
RSNEIVEFGSPWYKMTKGMR | 0.44 ± 0.31
RSNTRCAFKNFIFSMTCAFK | 0.823 ± 0.5
RSQCQAGCELYGFA | -0.303 ± 0.78
RSQPLGADVVKLPASRLGRL | -1.11 ± 0.94

Substance | amyloid nucleation score
RSRLPGCDFVPLYEVH | -0.472 ± 0.44
RSSCVELGWIGWRARTNR | 0.407 ± 0.57
RSTISGWR | inactive
RSVCYIKNPVVAREFLVLSA | inactive
RSVFEKNWVGCITEMTIWFA | -0.47 ± 0.73
RSWVCSSGLMVLRWNGRSYF | inactive
RSYCKRALMLDWFAISRMRL | 0.082 ± 0.51
RTCVIVKMNSTIALYLGQKE | 2.52 ± 0.12
RTDFLMFIGCVMNKICTLKA | 0.73 ± 0.33
RTFFRFKMSPWCINDYIMMR | 0.222 ± 1.2
RTGLY | 0.108 ± 0.33
RTIGFTEELP | -0.577 ± 0.96
RTIIDESVTAFLIWFCYVTV | -0.21 ± 0.26
RTMEYAPGCLVAFDYK | 0.24 ± 0.44
RTMKRSLSCVHCLLCLSPCQ | -0.102 ± 0.29
RTNSWAESHRSHCVCATSCG | -0.743 ± 0.6
RTPVLSCWWFEYMELRGQST | -0.412 ± 1.7
RTRFTDASMVWDANFMSNLY | inactive
RTSVLVSASALPNSLSFRQG | -0.647 ± 1.1
RVCMLLYCQVKVGTVN | 2.3 ± 0.11
RVEFHGIR | 1.62 ± 0.32
RVFLTSLEDRVHTLGQATNT | 1.39 ± 0.5
RVHQGLFDGNKAYQTGIHWN | 0.041 ± 0.25
RVIILMFTHRTCNS | -1.07 ± 2.7
RVMVSGNAPSFVLNGGVSVR | 0.874 ± 0.62

Substance | amyloid nucleation score
RVNFSDTYTSSGGFALGMST | 0.43 ± 0.3
RVSKYQYCIMYWRYRAI | 0.442 ± 0.56
RVVLGTGDLVSCRFIFSLEK | -1.25 ± 0.44
RWTEKGK | -0.332 ± 1.9
RYDSVFVIS | -0.129 ± 1.2
RYGVGLCAYMFFSCVDFRSG | 1.65 ± 0.4
RYLYVPALPFNFLCL | 1.63 ± 0.1
RYRRFCFALVYMRKNI | -0.184 ± 0.42
RYTFQFNYV | 0.224 ± 0.38
RYVLFALWWYKVGAEIYNKV | 0.48 ± 0.69
RYWYMTGMAMLNK | 0.58 ± 0.84
SACALSYYCGWISRCSYLCP | -0.158 ± 0.63
SACGVIRRLSAGYNCFYVK | 0.229 ± 0.51
SAGGHSLSVTYWSGCSLRTV | 0.272 ± 0.23
SAGSVADRGCLFSLRRASKC | 0.851 ± 0.78
SAHITDVLHKMWRNNTTTWY | 1.15 ± 0.55
SAICRYVF | 0.768 ± 0.66
SAKGIME | 1.03 ± 0.45
SALRTCKFN | 0.826 ± 0.56
SALYNAGCKLCLFTS | 0.004 ± 1.1
SAQSTILICLHKGLDMSERH | 5.8 ± 0.077
SASEIPALSTTGSNGMDEVI | -0.249 ± 0.54
SASPLVAMDNVGCA | -0.748 ± 0.37
SAVINFLRSQKLLNCGMGVT | -0.529 ± 1.7
SAWKDAYFRVDVNEDFVS | 0.154 ± 0.32

Substance | amyloid nucleation score
SCAAILEDVVHSAHILYLSH | -0.92 ± 0.96
SCARFITTNNQDSRLVASSN | -0.718 ± 0.77
SCATVPCKM | 0.53 ± 0.63
SCILS | inactive
SCKCLTSTGGGSGDRKGWNG | 0.916 ± 0.55
SCLKSDVYVCCEDLRRLDCV | -0.453 ± 0.38
SCLNNKSPSLI | -0.342 ± 0.25
SCMTLLRFKRMEDLK | 2.45 ± 0.19
SCNDTI | -0.172 ± 1.5
SCNSIGTCTLFKLHSLLS | 0.701 ± 0.51
SCNVFGASWRLTVNDVWYKW | 0.651 ± 0.22
SCNYWCERVQGNSLWVGWVH | -0.126 ± 0.35
SCPAGFCCAGANKYHVLGV | -0.137 ± 0.56
SCPKVITNVLSSKTYPRMVG | 1.11 ± 0.34
SCRTLANITLCPRSIQF | 0.055 ± 0.65
SCSWFFTYIVVAVNTLSISY | -0.444 ± 0.75
SCTLYYTSGSIMYAVMVLQE | 0.526 ± 0.49
SCTVLWDKFDRLLWCSK | inactive
SCVQRVLSIVNSFGRRSQTR | 0.269 ± 0.43
SCVRCQLS | 7.454 ± 0.05
SCYDVIVRWDFFLQQFCKMQ | 1.73 ± 0.12
SDALPVYVEFREGGKSRGWT | -0.916 ± 1.1
SDDLGE | -0.301 ± 0.39
SDEGLYPYLHLTFKTSTLWK | 0.201 ± 0.66
SDGWCRLRCES | -0.429 ± 0.59

Substance | amyloid nucleation score
SDLDVRAWQSLVSWIYRFPS | 0.18 ± 0.37
SDMLYLQLVKLASWFHFNLK | -0.199 ± 0.38
SDPYDPRIVVVRIKLLLVME | -0.153 ± 1.4
SDQDTGLHTLPCHTRS | inactive
SDQNWMVPQDGPSPTSYLDD | -0.102 ± 1.5
SDYILCIPWPSGLS | 0.734 ± 0.97
SDYRRPKEPVSS | 3.01 ± 0.16
SEEGGNTASNRVDWYTTGIV | 0.95 ± 0.48
SEEGMCSSMGVD | inactive
SEHRMASRHVNPRPGGKDCR | -1.54 ± 2.7
SEHVIIGRRDFV | -0.018 ± 1
SELFWMVGMGSLSSRYNSPF | 2.37 ± 0.087
SELWDLG | -0.197 ± 0.85
SERVMEWGTLKLYDSVHCVL | -1.55 ± 2.7
SEWGSQSSGAGSFTMV | -1.35 ± 2.4
SFALLTQLNEYKTARMKRAG | 0.64 ± 0.35
SFANVGSVGWAMYSGYTSRT | 0.002 ± 0.84
SFAVCGKLDHWCPCSAITLV | 1.08 ± 0.64
SFESYEH | 1.29 ± 0.9
SFFDLSEA | 0.918 ± 1.1
SFFDVLFKITWYNRVLMC | 0.362 ± 0.79
SFIPKVGCKKEPARRASGNV | 0.413 ± 1.4
SFIYTSPGFCWRDMFDWQVP | 0.339 ± 0.32
SFLKVGFL | -0.399 ± 1.1
SFLRGMASWLTQMHGKGWGW | 0.239 ± 0.69

Substance | amyloid nucleation score
SFLSSGINRSRCY | 0.154 ± 0.32
SFSGYMLDCGEHTQMYSASI | 0.185 ± 0.35
SFSRFVVMMKGIRAGKSSHT | 0.156 ± 0.72
SFVFAVWFW | 0.181 ± 0.83
SFVVHVICGHVCSWSFSVWF | 0.178 ± 0.33
SGAPYS | 0.185 ± 0.34
SGCPDPW | -0.047 ± 1.7
SGEDVSGCQDLFALVPMGQG | 0.495 ± 0.51
SGFAVLKIVMAFHLTLEHQF | 0.479 ± 0.67
SGFIGS | -1.33 ± 1.3
SGKLLISCVYSLENMC | 1.39 ± 0.72
SGMCNIQPQTCQ | -0.351 ± 0.39
SGMGMSPLMMIWCRSSNRDL | inactive
SGMSGCPKCGSWGSNKWYLW | -0.004 ± 0.44
SGMYRTNTAMFSFYDTTIVI | -0.091 ± 0.84
SGNCSVSW | 0.755 ± 0.97
SGPHGRFDARSMLAIL | -0.773 ± 0.64
SGSRGMFSKCVDK | 1.86 ± 0.1
SGTDLRISNHAT | inactive
SGVSVVEGYHRSRVACRSVM | -0.158 ± 0.52
SGVVE | -0.433 ± 0.39
SGYDDFWMTWTAKRVWHRAR | -0.436 ± 0.64
SHCYSLGMLKVWLGQIKTFG | 1.8 ± 0.27
SHELVKHGYKY | -0.436 ± 0.47
SHGNLYGHHERLNSTRNPES | -1.14 ± 0.9

Substance | amyloid nucleation score
SHIGIFEGFYVYLPYDCITM | inactive
SHIMRRFLWVELAQ | -1.18 ± 1.1
SHPNRTCKWLHSSVLRTPVL | 0.313 ± 0.49
SHQSDGNWQMVYWCLLVRFT | -0.709 ± 0.56
SHTYG | 0.06 ± 0.59
SIASIIRRFNWDTK | 3.87 ± 0.095
SICFYSLNSTPSLVGSWWGG | 1.3 ± 0.85
SICSFLFR | 3.69 ± 0.093
SIDCLCYYAPRLFRMHVELT | -0.656 ± 0.89
SIFVFRLYFLYGLV | 0.606 ± 0.44
SIGRLIPYFNQTPFCIS | -0.338 ± 0.23
SILMIMMTLSSVQRLMLTGS | -0.161 ± 0.71
SIMPWNLSVRSMWRFWMNLR | inactive
SIPRGFLLVLLVDNPTIRLQ | -0.358 ± 0.32
SIQNPLNLVDNLPTT | -0.114 ± 0.21
SIRLYETHSLT | 0.885 ± 0.14
SISVNTFLRPQLRWM | 6.509 ± 0.061
SITADLGHNSVALGVALLVI | -0.057 ± 1.7
SIYDARRMVRVHTFHEGLL | -0.577 ± 1.4
SIYHYCRDIRDCRMSRLELG | 0.572 ± 0.33
SIYIVNSLALVGMGLMSNYG | 2.81 ± 0.23
SKAKYGESSVWRVGLMGCF | -1.06 ± 0.83
SKCLMNS | -1.26 ± 1.7
